Experimental data from patent US20250002610A1 (Genmab, published 2025).

Columns and labels:
[1] = biological target: T1, human DR4 (Death Receptor 4), cell surface expressed on human tumor cell lines (human, UniProt O00220 24-468); assay: flow cytometry, A549 cells, n = 3
T1 construct: also called TNFRSF10A; TRAIL-R1
T1 sequence: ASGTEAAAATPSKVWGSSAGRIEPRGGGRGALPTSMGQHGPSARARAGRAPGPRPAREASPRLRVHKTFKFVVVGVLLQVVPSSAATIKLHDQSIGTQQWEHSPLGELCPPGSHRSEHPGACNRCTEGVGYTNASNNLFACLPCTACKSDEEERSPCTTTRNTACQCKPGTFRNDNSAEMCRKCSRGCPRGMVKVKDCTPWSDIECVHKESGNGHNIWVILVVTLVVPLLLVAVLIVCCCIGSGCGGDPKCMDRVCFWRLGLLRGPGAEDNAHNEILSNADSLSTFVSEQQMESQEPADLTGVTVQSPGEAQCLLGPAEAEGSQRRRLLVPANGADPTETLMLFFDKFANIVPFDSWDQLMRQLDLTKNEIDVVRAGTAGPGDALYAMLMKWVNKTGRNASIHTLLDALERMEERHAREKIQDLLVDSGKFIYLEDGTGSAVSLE

[2] = biological target: T2, human FAPα (Fibroblast activation protein alpha), cell surface expressed (human, UniProt Q12884 1-760); assay: flow cytometry, Expi293F cells expressing human FAPα, average ± SEM
T2 construct: Endogenous on human lung fibroblasts and CAFs
T2 sequence: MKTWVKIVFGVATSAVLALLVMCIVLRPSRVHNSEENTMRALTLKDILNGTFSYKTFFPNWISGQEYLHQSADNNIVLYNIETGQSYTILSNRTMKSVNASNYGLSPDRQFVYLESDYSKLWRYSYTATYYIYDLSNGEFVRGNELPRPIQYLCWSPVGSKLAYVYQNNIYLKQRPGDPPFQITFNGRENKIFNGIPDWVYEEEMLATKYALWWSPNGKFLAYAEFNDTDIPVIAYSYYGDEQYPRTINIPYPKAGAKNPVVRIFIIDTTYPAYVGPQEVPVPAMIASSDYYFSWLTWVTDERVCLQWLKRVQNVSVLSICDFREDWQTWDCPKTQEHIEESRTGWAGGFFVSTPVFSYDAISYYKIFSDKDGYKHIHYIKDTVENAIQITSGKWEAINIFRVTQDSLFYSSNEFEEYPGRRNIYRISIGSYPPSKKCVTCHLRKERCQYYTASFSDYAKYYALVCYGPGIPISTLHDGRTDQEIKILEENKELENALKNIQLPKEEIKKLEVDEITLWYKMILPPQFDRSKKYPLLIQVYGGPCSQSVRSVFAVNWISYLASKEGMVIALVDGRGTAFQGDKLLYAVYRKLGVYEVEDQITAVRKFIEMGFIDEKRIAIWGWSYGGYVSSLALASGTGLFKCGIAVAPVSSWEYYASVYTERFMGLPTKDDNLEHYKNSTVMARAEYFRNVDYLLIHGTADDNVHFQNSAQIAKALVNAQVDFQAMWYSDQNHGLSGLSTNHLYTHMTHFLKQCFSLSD
Method: (§1) Binding of BisG1-FAPα-FERL/DR4-FERR, BisG1-FAPα-FEAL/b12-FEAR and IgG1-FAPα-FERL to FAPα of species commonly used for nonclinical toxicology studies was assessed by flow cytometry using Expi293F cells transiently expressing FAPα from different animal species. IgG1-b12 was included as negative control.
(§2) Expi293F cells expressing recombinant FAPα from various species (human, cynomolgus monkey, dog, pig, rat or mouse) were seeded (20,000 cells/well) in 96-Well round bottom plates (Greiner Bio-one, Cat #650101). Antibody dilutions were prepared using FACS buffer, consisting of PBS (Capricorn Scientific, Cat #PBS-10XA, diluted to 1×PBS in distilled water)+1% BSA (Roche, Cat #10735086001)+0.02% Sodium Azide (Bio-World, Cat #41920044-3). Plates were centrifuged, supernatant was removed, and cells were resuspended in 100 μL of antibody dilutions (concentration range 30-0.00017 μg/mL with three-fold serial dilutions using FACS buffer) of BisG1-FAPα-FERL/DR4-FERR, BisG1-FAPα-FEAL/b12-FEAR, IgG1-FAPα-FERL and IgG1-b12 and incubated for 30 min at 4° C. […] After 30 min incubation at 4° C., cells were washed with FACS buffer and resuspended in FACS buffer supplemented with TO-PRO-3 Iodide viability marker (Invitrogen, Cat #T3605, diluted 1:4,000). Antibody binding to viable cells (gMFI of PE on TO-PRO-3 negative cells) was analyzed by flow cytometry on a FACS Celesta and FACS_Diva software (first two experiments) or iQue® 3 and FlowJo software (last experiment). gMFI was determined and visualized using GraphPad Prism. Binding curves were analyzed using nonlinear regression analysis. The concentration (pg/mL) at which 50% of the maximal effect was observed (EC₅₀) was derived from the fitted curves.

[3] = biological target: T3, cynomolgus monkey FAPα on Expi293F cells (cynomolgus monkey (Macaca fascicularis), UniProt Q12884 1-760 (human entry)); assay: flow cytometry, Expi293F cells expressing cynomolgus monkey FAPα, average ± SEM
T3 sequence: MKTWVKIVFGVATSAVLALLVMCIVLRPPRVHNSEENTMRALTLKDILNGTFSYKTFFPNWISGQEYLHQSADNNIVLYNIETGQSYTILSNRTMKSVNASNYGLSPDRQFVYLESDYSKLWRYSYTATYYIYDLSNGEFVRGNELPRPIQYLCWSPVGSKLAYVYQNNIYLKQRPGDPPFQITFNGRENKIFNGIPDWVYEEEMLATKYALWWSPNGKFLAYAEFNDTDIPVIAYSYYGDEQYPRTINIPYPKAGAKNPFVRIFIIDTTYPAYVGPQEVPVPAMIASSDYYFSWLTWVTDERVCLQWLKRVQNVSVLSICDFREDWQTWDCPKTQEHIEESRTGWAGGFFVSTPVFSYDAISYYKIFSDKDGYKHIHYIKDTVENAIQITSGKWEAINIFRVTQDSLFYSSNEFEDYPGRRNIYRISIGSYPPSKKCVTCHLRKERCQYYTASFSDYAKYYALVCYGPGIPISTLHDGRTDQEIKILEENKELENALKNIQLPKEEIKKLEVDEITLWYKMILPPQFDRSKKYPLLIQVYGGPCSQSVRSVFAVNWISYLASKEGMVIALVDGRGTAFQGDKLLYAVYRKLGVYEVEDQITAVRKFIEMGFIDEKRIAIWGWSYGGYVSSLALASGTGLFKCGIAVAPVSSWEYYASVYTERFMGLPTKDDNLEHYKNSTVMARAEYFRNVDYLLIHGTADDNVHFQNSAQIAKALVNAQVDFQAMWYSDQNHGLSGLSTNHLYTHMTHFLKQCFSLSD
Method: as §1, §2

[4] = biological target: T1, human DR4 (Death Receptor 4), cell …; assay: flow cytometry, HCT-116 cells, n = 2

EC50 [2]: 0.24 µg/mL
EC50 [3]: 0.25 µg/mL
B1: BisG1-FAPα-FERL/DR4-FERR (bispecific antibody, human IgG1, kappa, lambda)
heavy 1: EVQLLESGGGLVQPGGSPRLSCEASGFTFSSYALSWVRQAPGKGLEWVSAISGSGGGRYYADSVKGRFTISRDNSKNTLFLQMNSLRAEDTAVYYCAKEGYSSSGTYWDHWGQGTLVTVSSASTKGPSVFPLAPSSKSTSGGTAALGCLVKDYFPEPVTVSWNSGALTSGVHTFPAVLQSSGLYSLSSVVTVPSSSLGTQTYICNVNHKPSNTKVDKRVEPKSCDKTHTCPPCPAPEFERGPSVFLFPPKPKDTLMISRTPEVTCVVVDVSHEDPEVKFNWYVDGVEVHNAKTKPREEQYNSTYRVVSVLTVLHQDWLNGKEYKCKVSNKALPAPIEKTISKAKGQPREPQVYTLPPSREEMTKNQVSLTCLVKGFYPSDIAVEWESNGQPENNYKTTPPVLDSDGSFLLYSKLTVDKSRWQQGNVFSCSVMHEALHNHYTQKSLSLSPG
light 1: AIQMTQSPSSVSASVGDRVTITCRASQGVSSWLAWYQQKPGRAPKLLIYVASTLQSGVPSRFSGSGSGTDFTLTINSLQPEDFATYYCQQANSFPPTFGQGTRLEMKRTVAAPSVFIFPPSDEQLKSGTASVVCLLNNFYPREAKVQWKVDNALQSGNSQESVTEQDSKDSTYSLSSTLTLSKADYEKHKVYACEVTHQGLSSPVTKSFNRGEC
heavy 2: QVQLQESGPGLVKPSGTLSLTCAVSGGSISSYSWWSWIRQPPGKGLEWIGELYHSGSTNYNPSLKSRVTISVDKSKNQFSLKLRSVTAADTAVYYCVRGVATIDYWGQGTLVTVSSASTKGPSVFPLAPSSKSTSGGTAALGCLVKDYFPEPVTVSWNSGALTSGVHTFPAVLQSSGLYSLSSVVTVPSSSLGTQTYICNVNHKPSNTKVDKRVEPKSCDKTHTCPPCPAPEFERGPSVFLFPPKPKDTLMISRTPEVTCVVVDVSHEDPEVKFNWYVDGVEVHNAKTKPREEQYNSTYRVVSVLTVLHQDWLNGKEYKCKVSNKALPAPIEKTISKAKGQPREPQVYTLPPSREEMTKNQVSLTCLVKGFYPSDIAVEWESNGQPENNYKTTPPVLDSDGSFFLYSRLTVDKSRWQQGNVFSCSVMHEALHNHYTQKSLSLSPG
light 2: QSALTQPPSASGSPGQSVTISCTGTSSDVGGYNFVSWYQQDPGKAPKLLIYEVTKRPSGVPDRFSGSKSGNTASLTVSGLQAEDEADYYCSSYAGSNNVMFGGGTKLTVLGQPKAAPSVTLFPPSSEELQANKATLVCLISDFYPGAVTVAWKADSSPVKAGVETTTPSKQSNNKYAASSYLSLTPEQWKSHRSYSCQVTHEGSTVEKTVAPTECS
notes: Human IgG1 bispecific made by controlled Fab-arm exchange of IgG1-FAPα-FERL and IgG1-DR4-FERR; monovalent for FAPα and for DR4; also called GEN1057
EC50 [1]: 0.87 µg/mL
EC50 [4]: 0.55 µg/mL
